Target: human GFRAL (UniProtKB-Q6UXV0) (human) (UniProt Q6UXV0)
Assay: cell-based or functional assay

human GFRAL, sequence (Q6UXV0 19-394): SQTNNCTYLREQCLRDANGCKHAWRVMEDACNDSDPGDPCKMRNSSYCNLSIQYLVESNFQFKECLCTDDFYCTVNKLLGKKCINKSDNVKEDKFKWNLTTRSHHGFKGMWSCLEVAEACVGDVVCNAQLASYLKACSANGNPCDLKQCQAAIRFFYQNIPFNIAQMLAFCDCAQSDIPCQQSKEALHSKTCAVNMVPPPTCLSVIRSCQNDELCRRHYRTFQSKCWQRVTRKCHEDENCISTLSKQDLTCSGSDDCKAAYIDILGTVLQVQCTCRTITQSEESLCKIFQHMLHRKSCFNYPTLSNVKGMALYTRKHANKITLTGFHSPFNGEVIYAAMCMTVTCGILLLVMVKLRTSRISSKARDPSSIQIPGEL

Question: With “native GDF15 (ACROBiosystems, GD5-H5149) (from UniProt Q99988 195-308) (ligand)” as the substance, how does the Relative activity ratio (native GDF15 EC50: Fc-GDF15 construct EC50), ERK1/2 phosphorylation HTRF in HEK293T cells expressing human GFRAL and RET read?
Answer: 1

From patent US20240391971A1
